Source: US20120064065A1 (AC IMMUNE S A, published 2012)

Tests used:
murine Aβ1-42 peptide = biological target: T1, murine Aβ1-42 peptide (murine, UniProt P12023 672-713); assay: Aβ ELISA
T1 construct: domain: Aβ1-42
T1 peptide (looked up): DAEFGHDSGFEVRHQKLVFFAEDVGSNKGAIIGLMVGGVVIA

[1] = biological target: T2, human FcγRIIIa-V158, extracellular domain with C-terminal Gly/6xHis/GST tag (human, UniProt P08637 17-208); assay: ELISA, cross-linked antibody on anti-GST-captured FcγRIIIa-V158
T2 construct: extracellular domain; Made by Genentech; captured on the plate through an anti-GST antibody; V158 is the allotype as printed; not shown: Gly/6xHis/glutathione S transferase (GST) polypeptide tag at the C terminus
T2 sequence (P08637 17-208 F176V): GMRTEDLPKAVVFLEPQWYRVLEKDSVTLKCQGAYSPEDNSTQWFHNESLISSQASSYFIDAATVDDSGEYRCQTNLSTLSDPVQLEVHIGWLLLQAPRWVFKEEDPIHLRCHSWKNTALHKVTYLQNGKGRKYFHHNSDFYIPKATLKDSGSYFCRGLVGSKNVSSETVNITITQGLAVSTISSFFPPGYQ

B1: MABT humanized anti-Aβ IgG4 monoclonal antibody (antibody)
heavy: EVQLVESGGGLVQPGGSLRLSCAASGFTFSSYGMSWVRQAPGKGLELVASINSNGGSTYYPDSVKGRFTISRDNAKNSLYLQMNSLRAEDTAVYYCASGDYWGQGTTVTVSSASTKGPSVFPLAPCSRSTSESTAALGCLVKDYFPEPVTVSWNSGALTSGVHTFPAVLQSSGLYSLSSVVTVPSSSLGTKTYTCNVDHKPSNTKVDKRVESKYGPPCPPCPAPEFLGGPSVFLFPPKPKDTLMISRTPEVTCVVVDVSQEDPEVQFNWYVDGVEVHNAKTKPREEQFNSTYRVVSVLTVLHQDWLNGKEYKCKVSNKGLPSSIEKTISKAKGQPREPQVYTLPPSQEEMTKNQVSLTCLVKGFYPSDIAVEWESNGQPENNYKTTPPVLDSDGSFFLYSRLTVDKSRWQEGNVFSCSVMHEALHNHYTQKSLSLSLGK
light: DIVMTQSPLSLPVTPGEPASISCRSSQSLVYSNGDTYLHWYLQKPGQSPQLLIYKVSNRFSGVPDRFSGSGSGTDFTLKISRVEAEDVGVYYCSQSTHVPWTFGQGTKVEIKRTVAAPSVFIFPPSDEQLKSGTASVVCLLNNFYPREAKVQWKVDNALQSGNSQESVTEQDSKDSTYSLSSTLTLSKADYEKHKVYACEVTHQGLSSPVTKSFNRGEC
notes: also called anti-Aβ MABT; MABT IgG4
Murine Aβ1-42 peptide
  binding result: binds
[1]
  binding result: binds
